Assay results as given in paper PMC7994000 (Biochimica et biophysica acta. Proteins and proteomics, 2020).
Each block holds one binder with its values, some of them ahead of it.

Experiments:
[1] = biological target: the molecule itself; assay: SEC-MALS
[2] = biological target: T1, Full-length human IKK2 (human, UniProt O14920 1-756); assay: SEC-MALS
T1 sequence (looked up): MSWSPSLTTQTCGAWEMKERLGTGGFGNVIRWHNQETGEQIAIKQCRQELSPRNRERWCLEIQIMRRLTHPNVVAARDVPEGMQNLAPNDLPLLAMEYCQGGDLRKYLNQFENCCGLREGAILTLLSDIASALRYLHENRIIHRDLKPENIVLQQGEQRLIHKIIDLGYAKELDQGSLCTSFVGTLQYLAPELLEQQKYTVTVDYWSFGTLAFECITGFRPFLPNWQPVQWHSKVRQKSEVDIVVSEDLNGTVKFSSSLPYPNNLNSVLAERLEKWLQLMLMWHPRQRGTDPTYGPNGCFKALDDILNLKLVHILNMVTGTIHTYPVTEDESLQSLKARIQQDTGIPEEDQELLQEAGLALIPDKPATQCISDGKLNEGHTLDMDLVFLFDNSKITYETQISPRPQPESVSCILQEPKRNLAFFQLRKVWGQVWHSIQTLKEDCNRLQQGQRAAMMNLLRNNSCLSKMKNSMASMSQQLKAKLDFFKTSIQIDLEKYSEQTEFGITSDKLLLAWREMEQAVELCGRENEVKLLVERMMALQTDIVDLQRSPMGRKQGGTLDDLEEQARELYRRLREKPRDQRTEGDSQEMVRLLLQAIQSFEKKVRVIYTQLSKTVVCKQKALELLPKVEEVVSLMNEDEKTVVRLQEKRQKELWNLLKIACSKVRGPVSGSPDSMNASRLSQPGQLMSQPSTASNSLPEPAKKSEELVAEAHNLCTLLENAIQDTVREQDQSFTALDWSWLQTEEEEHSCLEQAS

B1: NEMO^111–250 (domain or fragment, human, UniProt Q9Y6K9 111-250, looked up)
chain: KLDLKRQKEQALREVEHLKRCQQQMAEDKASVKAQVTSLLGELQESQSRLEAATKECQALEGRARAASEQARQLESEREALQQQHSVQVDQLRMQGQSVEAALRMERQAASEEKRKLAQLQVAYHQLFQEYDNHIKSSVV
stoichiometry N [1]: 2

B2: NEMO^1–130 (domain or fragment, human, UniProt Q9Y6K9 1-130, looked up)
chain: MNRHLWKSQLCEMVQPSGGPAADQDVLGEESPLGKPAMLHLPSEQGAPETLQRCLEENQELRDAIRQSNQILRERCEELLHFQASQREEKEFLMCKFQEARKLVERLGLEKLDLKRQKEQALREVEHLKR
stoichiometry N [1]: 2
binding result [2]: binds

B3: NEMO^1–250 (domain or fragment, human, UniProt Q9Y6K9 1-250, looked up)
chain: MNRHLWKSQLCEMVQPSGGPAADQDVLGEESPLGKPAMLHLPSEQGAPETLQRCLEENQELRDAIRQSNQILRERCEELLHFQASQREEKEFLMCKFQEARKLVERLGLEKLDLKRQKEQALREVEHLKRCQQQMAEDKASVKAQVTSLLGELQESQSRLEAATKECQALEGRARAASEQARQLESEREALQQQHSVQVDQLRMQGQSVEAALRMERQAASEEKRKLAQLQVAYHQLFQEYDNHIKSSVV
stoichiometry N [1]: 2
binding result [2]: binds

B5: NEMO^1–110 (domain or fragment, human, UniProt Q9Y6K9 1-110, looked up)
chain: MNRHLWKSQLCEMVQPSGGPAADQDVLGEESPLGKPAMLHLPSEQGAPETLQRCLEENQELRDAIRQSNQILRERCEELLHFQASQREEKEFLMCKFQEARKLVERLGLE
stoichiometry N [1]: 2

B6: NEMO^250–365 (domain or fragment, human, UniProt Q9Y6K9 250-365, looked up)
chain: VGSERKRGMQLEDLKQQLQQAEEALVAKQEVIDKLKEEAEQHKIVMETVPVLKAQADIYKADFQAERQAREKLAEKKELLQEQLEQLQREYSKLKASCQESARIEDMRKRHVEVSQ
stoichiometry N [1]: 2

Further lines, with some results ahead:

binding result [2]: binds
B4: NEMO^1–210 (domain or fragment, human, UniProt Q9Y6K9 1-210, looked up)
chain: MNRHLWKSQLCEMVQPSGGPAADQDVLGEESPLGKPAMLHLPSEQGAPETLQRCLEENQELRDAIRQSNQILRERCEELLHFQASQREEKEFLMCKFQEARKLVERLGLEKLDLKRQKEQALREVEHLKRCQQQMAEDKASVKAQVTSLLGELQESQSRLEAATKECQALEGRARAASEQARQLESEREALQQQHSVQVDQLRMQGQSVE
binding result [1]: binds

binding result [2]: binds
B7: NEMO^1–280 (domain or fragment, human, UniProt Q9Y6K9 1-280, looked up)
chain: MNRHLWKSQLCEMVQPSGGPAADQDVLGEESPLGKPAMLHLPSEQGAPETLQRCLEENQELRDAIRQSNQILRERCEELLHFQASQREEKEFLMCKFQEARKLVERLGLEKLDLKRQKEQALREVEHLKRCQQQMAEDKASVKAQVTSLLGELQESQSRLEAATKECQALEGRARAASEQARQLESEREALQQQHSVQVDQLRMQGQSVEAALRMERQAASEEKRKLAQLQVAYHQLFQEYDNHIKSSVVGSERKRGMQLEDLKQQLQQAEEALVAKQEV
binding result [1]: binds
